T1: GRIP1_1, Q9Y3R0
T1 sequence (Q9Y3R0 48-146, limits assumed, looked up): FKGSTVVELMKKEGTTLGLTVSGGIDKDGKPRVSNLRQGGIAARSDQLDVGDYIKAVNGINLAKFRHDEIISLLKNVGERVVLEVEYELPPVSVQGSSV

T2: LNX2_1, Q8N448
T2 sequence (Q8N448 228-328, limits assumed, looked up): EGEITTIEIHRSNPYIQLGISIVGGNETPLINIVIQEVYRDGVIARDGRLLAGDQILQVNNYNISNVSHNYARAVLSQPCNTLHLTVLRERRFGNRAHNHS

T3: LNX2_4, Q8N448
T3 sequence (Q8N448 595-690, limits assumed, looked up): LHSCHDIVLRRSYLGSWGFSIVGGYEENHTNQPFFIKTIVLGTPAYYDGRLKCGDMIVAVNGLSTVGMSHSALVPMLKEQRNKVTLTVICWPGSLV

T4: MPDZ_11, O75970
T4 sequence (O75970 1720-1817, limits assumed, looked up): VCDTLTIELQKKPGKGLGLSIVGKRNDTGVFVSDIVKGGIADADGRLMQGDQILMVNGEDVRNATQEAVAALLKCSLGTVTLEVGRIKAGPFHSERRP

T5: MPP1, Q00013
T5 sequence (Q00013 66-162, limits assumed, looked up): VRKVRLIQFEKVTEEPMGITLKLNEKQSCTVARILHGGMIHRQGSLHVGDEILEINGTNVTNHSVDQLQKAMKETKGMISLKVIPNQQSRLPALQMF

T6: NHERF1_2, O14745
T6 sequence (O14745 149-244, limits assumed, looked up): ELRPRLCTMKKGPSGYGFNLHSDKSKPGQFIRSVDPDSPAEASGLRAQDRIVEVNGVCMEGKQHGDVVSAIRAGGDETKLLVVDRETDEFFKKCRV

T7: PDLIM3, Q53GG5
T7 sequence (Q53GG5 1-94, limits assumed, looked up): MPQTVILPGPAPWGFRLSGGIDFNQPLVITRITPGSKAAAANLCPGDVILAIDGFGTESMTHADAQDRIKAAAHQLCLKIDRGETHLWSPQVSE

T8: PDZD11, Q5EBL8
T8 sequence (Q5EBL8 42-139, limits assumed, looked up): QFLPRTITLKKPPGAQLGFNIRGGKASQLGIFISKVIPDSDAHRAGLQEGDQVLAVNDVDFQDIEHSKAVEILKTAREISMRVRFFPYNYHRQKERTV

T9: PDZD2_6, O15018
T9 sequence (O15018 2745-2839, limits assumed, looked up): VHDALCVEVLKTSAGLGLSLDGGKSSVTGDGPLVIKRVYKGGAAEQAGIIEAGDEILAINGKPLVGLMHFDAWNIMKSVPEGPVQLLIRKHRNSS

T10: CNKSR1, Q969H4
T10 sequence (Q969H4 191-295, limits assumed, looked up): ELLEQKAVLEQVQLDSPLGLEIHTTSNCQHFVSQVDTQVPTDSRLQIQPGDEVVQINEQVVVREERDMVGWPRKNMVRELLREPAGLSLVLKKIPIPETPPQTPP

T11: PARD6B, Q9BYG5
T11 sequence (Q9BYG5 152-260, limits assumed, looked up): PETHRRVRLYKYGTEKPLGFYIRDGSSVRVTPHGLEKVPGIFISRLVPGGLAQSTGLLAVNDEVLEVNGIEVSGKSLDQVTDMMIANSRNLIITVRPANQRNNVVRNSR

T12: PDZD7_2, Q9H5P4
T12 sequence (Q9H5P4 205-303, limits assumed, looked up): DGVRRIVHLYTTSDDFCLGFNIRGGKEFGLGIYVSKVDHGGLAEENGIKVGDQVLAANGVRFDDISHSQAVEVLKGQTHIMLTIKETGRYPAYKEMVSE


Legend:
Experiment in all cases: holdup assay
Design in all cases: key: below the threshold = too weak to quantify, mostly under pKd 3.1 to 4
AHNAK2, Q8IVF2 = molecular target: AHNAK2, Q8IVF2
Chain of AHNAK2, Q8IVF2 (Q8IVF2 108-193): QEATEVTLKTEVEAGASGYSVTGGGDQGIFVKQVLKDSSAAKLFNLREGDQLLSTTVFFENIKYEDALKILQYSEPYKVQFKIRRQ

CNKSR3, Q6P9H4 = molecular target: CNKSR3, Q6P9H4
Chain of CNKSR3, Q6P9H4 (Q6P9H4 203-303): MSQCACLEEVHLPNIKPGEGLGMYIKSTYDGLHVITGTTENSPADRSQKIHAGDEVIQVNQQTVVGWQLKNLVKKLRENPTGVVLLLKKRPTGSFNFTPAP

GRIP1_1, Q9Y3R0 = molecular target: T1, GRIP1_1, Q9Y3R0
LNX2_1, Q8N448 = molecular target: T2, LNX2_1, Q8N448
LNX2_4, Q8N448 = molecular target: T3, LNX2_4, Q8N448
MAGI3_3, Q5TCQ9 = molecular target: MAGI3_3, Q5TCQ9
Chain of MAGI3_3, Q5TCQ9 (Q5TCQ9 572-655): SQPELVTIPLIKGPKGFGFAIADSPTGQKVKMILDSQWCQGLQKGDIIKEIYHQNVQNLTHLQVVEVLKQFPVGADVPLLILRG

MAGI3_6, Q5TCQ9 = molecular target: MAGI3_6, Q5TCQ9
Chain of MAGI3_6, Q5TCQ9 (Q5TCQ9 1014-1103): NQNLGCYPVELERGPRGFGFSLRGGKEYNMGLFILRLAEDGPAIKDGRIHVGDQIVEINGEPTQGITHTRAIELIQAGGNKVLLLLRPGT

MAGIX, Q9H6Y5 = molecular target: MAGIX, Q9H6Y5
Chain of MAGIX, Q9H6Y5 (Q9H6Y5 118-211): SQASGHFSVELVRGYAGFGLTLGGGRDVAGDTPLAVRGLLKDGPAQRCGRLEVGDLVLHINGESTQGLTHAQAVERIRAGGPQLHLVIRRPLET

MPDZ_11, O75970 = molecular target: T4, MPDZ_11, O75970
MPP1, Q00013 = molecular target: T5, MPP1, Q00013
NHERF1_2, O14745 = molecular target: T6, NHERF1_2, O14745
NHERF2_1, Q15599 = molecular target: NHERF2_1, Q15599
Chain of NHERF2_1, Q15599 (Q15599 9-91): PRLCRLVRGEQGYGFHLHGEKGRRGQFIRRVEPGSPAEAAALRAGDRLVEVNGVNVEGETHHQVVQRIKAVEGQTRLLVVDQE

NHERF4_3, Q86UT5 = molecular target: NHERF4_3, Q86UT5
Chain of NHERF4_3, Q86UT5 (Q86UT5 325-412): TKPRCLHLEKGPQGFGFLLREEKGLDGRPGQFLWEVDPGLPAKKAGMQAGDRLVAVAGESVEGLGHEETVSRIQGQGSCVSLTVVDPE

PARD3B_3, Q8TEW8 = molecular target: PARD3B_3, Q8TEW8
Chain of PARD3B_3, Q8TEW8 (Q8TEW8 490-594): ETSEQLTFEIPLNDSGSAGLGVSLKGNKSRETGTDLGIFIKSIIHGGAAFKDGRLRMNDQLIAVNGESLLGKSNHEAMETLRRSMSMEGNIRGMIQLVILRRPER

PDLIM3, Q53GG5 = molecular target: T7, PDLIM3, Q53GG5
PDZD11, Q5EBL8 = molecular target: T8, PDZD11, Q5EBL8
PDZD2_6, O15018 = molecular target: T9, PDZD2_6, O15018
PTPN13_2, Q12923 = molecular target: PTPN13_2, Q12923
Chain of PTPN13_2, Q12923 (Q12923 1363-1462): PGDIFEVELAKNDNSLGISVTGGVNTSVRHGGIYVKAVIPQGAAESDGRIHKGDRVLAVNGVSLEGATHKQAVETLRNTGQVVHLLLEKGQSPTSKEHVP

RGS3, P49796-9 = molecular target: RGS3, P49796-9
Chain of RGS3, P49796-9 (P49796 other isoform, or with tags, fused parts or gaps): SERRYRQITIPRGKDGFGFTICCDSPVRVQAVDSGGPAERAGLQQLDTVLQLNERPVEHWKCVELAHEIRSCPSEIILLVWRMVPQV

CNKSR1, Q969H4 = molecular target: T10, CNKSR1, Q969H4; settings: plain residues with an end cap or a label only (N-terminal biotin on a linker: (peg)3)
DVL2, O14641 = settings: plain residues with an end cap or a label only (N-terminal biotin on a linker: (peg)3)
Chain of DVL2, O14641 (O14641 260-359): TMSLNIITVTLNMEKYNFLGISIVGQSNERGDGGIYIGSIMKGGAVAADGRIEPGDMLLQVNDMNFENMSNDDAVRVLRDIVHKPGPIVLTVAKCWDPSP

PARD6B, Q9BYG5 = molecular target: T11, PARD6B, Q9BYG5; settings: plain residues with an end cap or a label only (N-terminal biotin on a linker: (peg)3)
PDZD7_2, Q9H5P4 = molecular target: T12, PDZD7_2, Q9H5P4; settings: plain residues with an end cap or a label only (N-terminal biotin on a linker: (peg)3)
PDZD9, Q8IXQ8 = settings: plain residues with an end cap or a label only (N-terminal biotin on a linker: (peg)3)
Chain of PDZD9, Q8IXQ8 (Q8IXQ8 23-120): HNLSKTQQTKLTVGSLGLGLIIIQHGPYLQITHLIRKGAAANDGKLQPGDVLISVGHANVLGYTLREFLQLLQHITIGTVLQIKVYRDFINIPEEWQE

RIMS2, Q9UQ26 = settings: plain residues with an end cap or a label only (N-terminal biotin on a linker: (peg)3)
Chain of RIMS2, Q9UQ26 (Q9UQ26 637-758): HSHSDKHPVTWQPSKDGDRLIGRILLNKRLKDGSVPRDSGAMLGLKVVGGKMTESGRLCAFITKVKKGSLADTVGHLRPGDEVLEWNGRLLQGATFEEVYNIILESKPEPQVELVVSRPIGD

[1] = modified: phospho on T at position -2 from the C-terminal residue
[2] = plain residues with an end cap or a label only (N-terminal biotin on a linker: (peg)3)

Binder	pKd (AHNAK2, Q8IVF2; [2])	pKd (CNKSR1, Q969H4)	pKd (DVL2, O14641)	pKd (GRIP1_1, Q9Y3R0; [2])	pKd (LNX2_1, Q8N448; [2])	pKd (LNX2_4, Q8N448; [2])	pKd (MAGI3_3, Q5TCQ9; [2])	pKd (MAGI3_6, Q5TCQ9; [2])	pKd (MAGIX, Q9H6Y5; [2])	pKd (MPDZ_11, O75970; [2])	pKd (MPP1, Q00013; [2])	pKd (NHERF1_2, O14745; [2])	pKd (NHERF2_1, Q15599; [2])	pKd (NHERF4_3, Q86UT5; [2])	pKd (PARD3B_3, Q8TEW8; [2])	pKd (PARD6B, Q9BYG5)	pKd (PDLIM3, Q53GG5; [2])	pKd (PDZD11, Q5EBL8; [2])	pKd (PDZD2_6, O15018; [2])	pKd (PDZD7_2, Q9H5P4)	also measured
SSRTRRETQL [HPV16-E6_-2P, P03126]	–	–	–	–	–	–	–	–	–	–	–	–	–	–	–	–	–	–	–	–	pKd (AHNAK2, Q8IVF2; [1]): below the threshold; pKd (CNKSR3, Q6P9H4; [1]): below the threshold; pKd (GRIP1_1, Q9Y3R0; [1]): 4.61; pKd (LNX2_1, Q8N448; [1]): below the threshold; pKd (LNX2_4, Q8N448; [1]): below the threshold; pKd (MAGI3_3, Q5TCQ9; [1]): below the threshold; pKd (MAGI3_6, Q5TCQ9; [1]): below the threshold; pKd (MAGIX, Q9H6Y5; [1]): below the threshold; pKd (MPDZ_11, O75970; [1]): below the threshold; pKd (MPP1, Q00013; [1]): below the threshold; pKd (NHERF1_2, O14745; [1]): below the threshold; pKd (NHERF2_1, Q15599; [1]): below the threshold; pKd (NHERF4_3, Q86UT5; [1]): below the threshold; pKd (PARD3B_3, Q8TEW8; [1]): below the threshold; pKd (PDLIM3, Q53GG5; [1]): below the threshold; pKd (PDZD11, Q5EBL8; [1]): below the threshold; pKd (PDZD2_6, O15018; [1]): below the threshold; pKd (PTPN13_2, Q12923; [1]): below the threshold; pKd (RGS3, P49796-9; [1]): below the threshold
RRRRSQSRESQC [HBV-HBc, P03193]	below the threshold	3.9	below the threshold	below the threshold	below the threshold	3.9	below the threshold	below the threshold	below the threshold	below the threshold	below the threshold	3.96	below the threshold	below the threshold	below the threshold	below the threshold	4.1	below the threshold	below the threshold	below the threshold	pKd (CNKSR3, Q6P9H4; [2]): below the threshold; pKd (PDZD9, Q8IXQ8): below the threshold; pKd (PTPN13_2, Q12923; [2]): 3.99; pKd (RGS3, P49796-9; [2]): below the threshold; pKd (RIMS2, Q9UQ26): below the threshold
QQSMSSADSTQA [SARS-Cov2-N, P0DTC9]	below the threshold	below the threshold	below the threshold	below the threshold	below the threshold	below the threshold	3.78	below the threshold	below the threshold	below the threshold	below the threshold	below the threshold	below the threshold	below the threshold	below the threshold	below the threshold	below the threshold	below the threshold	below the threshold	below the threshold	pKd (CNKSR3, Q6P9H4; [2]): below the threshold; pKd (PDZD9, Q8IXQ8): below the threshold; pKd (PTPN13_2, Q12923; [2]): below the threshold; pKd (RGS3, P49796-9; [2]): below the threshold; pKd (RIMS2, Q9UQ26): below the threshold
RYEDTTLVEDTVL [WNV-NS5, Q9Q6P4]	below the threshold	below the threshold	below the threshold	below the threshold	below the threshold	below the threshold	below the threshold	below the threshold	below the threshold	below the threshold	below the threshold	below the threshold	4.19	below the threshold	4.05	below the threshold	below the threshold	below the threshold	below the threshold	below the threshold	pKd (PDZD9, Q8IXQ8): below the threshold; pKd (PTPN13_2, Q12923; [2]): below the threshold; pKd (RGS3, P49796-9; [2]): below the threshold; pKd (RIMS2, Q9UQ26): below the threshold

Source: paper PMC9482650, “Quantitative fragmentomics allow affinity mapping of interactomes” (Nature Communications, 2022)
